Data: article PMC8044712 (STAR Protocols, 2021)

Target: T1, ΔN100 y-mtRNAP (yeast mitochondrial RNA polymerase lacking the N-terminal 100 residues) (S. cerevisiae, UniProt P13433 101-1351)
T1 sequence (looked up): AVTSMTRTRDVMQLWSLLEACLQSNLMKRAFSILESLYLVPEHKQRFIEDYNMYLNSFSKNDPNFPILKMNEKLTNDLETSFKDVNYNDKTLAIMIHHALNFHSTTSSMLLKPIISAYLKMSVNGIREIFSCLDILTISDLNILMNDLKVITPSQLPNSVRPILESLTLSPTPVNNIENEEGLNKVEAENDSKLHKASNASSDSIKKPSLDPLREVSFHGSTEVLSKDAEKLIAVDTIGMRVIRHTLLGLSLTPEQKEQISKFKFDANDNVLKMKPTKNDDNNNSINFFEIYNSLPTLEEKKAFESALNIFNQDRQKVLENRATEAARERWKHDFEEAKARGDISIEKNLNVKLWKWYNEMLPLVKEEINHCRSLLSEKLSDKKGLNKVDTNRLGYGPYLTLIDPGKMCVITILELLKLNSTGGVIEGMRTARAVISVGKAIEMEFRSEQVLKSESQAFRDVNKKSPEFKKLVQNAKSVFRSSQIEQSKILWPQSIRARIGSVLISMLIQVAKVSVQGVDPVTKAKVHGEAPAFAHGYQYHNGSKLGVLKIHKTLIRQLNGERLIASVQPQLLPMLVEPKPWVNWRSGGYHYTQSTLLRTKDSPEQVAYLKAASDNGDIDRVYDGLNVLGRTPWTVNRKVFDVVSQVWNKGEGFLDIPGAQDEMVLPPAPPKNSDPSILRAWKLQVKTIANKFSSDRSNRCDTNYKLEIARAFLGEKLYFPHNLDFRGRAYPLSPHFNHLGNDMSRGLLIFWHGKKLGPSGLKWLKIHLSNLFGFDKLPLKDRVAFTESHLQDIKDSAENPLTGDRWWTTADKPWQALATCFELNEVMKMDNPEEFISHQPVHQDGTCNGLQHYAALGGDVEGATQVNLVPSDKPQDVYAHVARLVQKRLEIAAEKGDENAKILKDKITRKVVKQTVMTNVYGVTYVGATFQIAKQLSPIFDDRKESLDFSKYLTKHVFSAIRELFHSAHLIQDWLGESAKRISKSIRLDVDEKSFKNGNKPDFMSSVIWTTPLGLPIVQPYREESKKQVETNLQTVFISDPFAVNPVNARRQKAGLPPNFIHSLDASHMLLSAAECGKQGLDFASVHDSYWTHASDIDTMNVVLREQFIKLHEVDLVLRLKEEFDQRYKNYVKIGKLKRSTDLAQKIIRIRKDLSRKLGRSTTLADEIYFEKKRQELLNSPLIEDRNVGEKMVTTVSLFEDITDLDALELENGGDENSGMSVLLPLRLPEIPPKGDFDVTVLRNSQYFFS
Test: cryo-EM structure

binding result: binds
B1: His-6 tagged MTF1 from S. cerevisiae (mitochondrial transcription initiation factor MTF1) (natural protein)
chain: SVPIPGIKDISKLKFFYGFKYLWNPTVYNKIFDKLDLTKTYKHPEELKVLDLYPGVGIQSAIFYNKYCPRQYSLLEKRSSLYKFLNAKFEGSPLQILKRDPYDWSTYSNLIDEERIFVPEVQSSDHINDKFLTVANVTGEGSEGLIMQWLSCIGNKNWLYRFGKVKMLLWMPSTTARKLLARPGMHSRSKCSVVREAFTDTKLIAISDANELKGFDSQCIEEWDPILFSAAEIWPTKGKPIALVEMDPIDFDFDVDNWDYVTRHLMILKRTPLNTVMDSLGHGGQQYFNSRITDKDLLKKCPIDLTNDEFIYLTKLFMEWPFKPDILMDFVDMYQTEHSG
